Results from patent US7083511.

Columns and labels:
[1] = biological target: GST-SGK[T256A/S422D], O00141
[2] = biological target: GST-PKBα, P31749
[3] = biological target: GST-SGK with both Thr256 and Ser422 mutated to Ala, O00141
[4] = biological target: GST-SGK2α[S356D]
[5] = biological target: GST-SGK[S422A], O00141
[6] = biological target: T1, GST-SGK2α (wild type)
T1 chain: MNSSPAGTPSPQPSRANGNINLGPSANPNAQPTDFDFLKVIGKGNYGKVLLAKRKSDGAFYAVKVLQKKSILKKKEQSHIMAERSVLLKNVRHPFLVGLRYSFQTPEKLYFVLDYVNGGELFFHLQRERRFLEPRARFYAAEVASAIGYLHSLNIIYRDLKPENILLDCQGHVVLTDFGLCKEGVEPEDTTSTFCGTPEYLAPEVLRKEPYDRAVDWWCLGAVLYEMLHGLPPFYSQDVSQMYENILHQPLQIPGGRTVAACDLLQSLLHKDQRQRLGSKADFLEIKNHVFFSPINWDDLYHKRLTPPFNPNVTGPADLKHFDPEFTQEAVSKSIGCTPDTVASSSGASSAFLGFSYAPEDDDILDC

[7] = biological target: T2, GST-SGK (full length, wild type), O00141
T2 chain: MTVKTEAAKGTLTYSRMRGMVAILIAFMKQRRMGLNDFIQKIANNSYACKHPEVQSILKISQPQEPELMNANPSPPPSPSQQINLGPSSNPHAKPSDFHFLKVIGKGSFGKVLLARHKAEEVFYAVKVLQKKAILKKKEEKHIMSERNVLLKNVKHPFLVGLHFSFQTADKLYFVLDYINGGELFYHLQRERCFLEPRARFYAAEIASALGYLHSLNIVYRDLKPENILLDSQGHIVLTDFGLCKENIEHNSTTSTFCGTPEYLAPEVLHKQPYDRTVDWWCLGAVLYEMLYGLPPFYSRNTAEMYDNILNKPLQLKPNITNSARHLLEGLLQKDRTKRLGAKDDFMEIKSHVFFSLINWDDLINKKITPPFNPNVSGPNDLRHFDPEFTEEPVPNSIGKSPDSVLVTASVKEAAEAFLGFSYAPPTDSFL

[8] = biological target: GST-SGK[S422D], O00141
[9] = biological target: GST-ΔN-SGK(61-431)[S422D], O00141
[10] = biological target: GST-SGK with Lys127 mutated to Ala (kinase dead), O00141
[11] = biological target: GST-SGK[T256A], O00141
[12] = biological target: T3, GST-SGK3 (wild type)
T3 chain: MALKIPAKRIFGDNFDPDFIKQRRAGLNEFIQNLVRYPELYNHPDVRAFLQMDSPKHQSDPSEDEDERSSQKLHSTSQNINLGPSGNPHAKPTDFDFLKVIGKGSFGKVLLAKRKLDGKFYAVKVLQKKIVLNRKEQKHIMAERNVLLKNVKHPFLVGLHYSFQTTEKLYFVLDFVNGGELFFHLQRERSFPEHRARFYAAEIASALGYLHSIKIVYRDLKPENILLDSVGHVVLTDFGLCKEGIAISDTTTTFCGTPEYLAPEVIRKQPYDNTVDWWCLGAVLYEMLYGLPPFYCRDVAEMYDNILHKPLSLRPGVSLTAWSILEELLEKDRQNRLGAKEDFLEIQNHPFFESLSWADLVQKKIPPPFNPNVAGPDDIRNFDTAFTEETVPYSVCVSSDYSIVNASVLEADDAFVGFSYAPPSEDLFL

GST-PKBα, P31749, sequence (P31749 whole entry, looked up): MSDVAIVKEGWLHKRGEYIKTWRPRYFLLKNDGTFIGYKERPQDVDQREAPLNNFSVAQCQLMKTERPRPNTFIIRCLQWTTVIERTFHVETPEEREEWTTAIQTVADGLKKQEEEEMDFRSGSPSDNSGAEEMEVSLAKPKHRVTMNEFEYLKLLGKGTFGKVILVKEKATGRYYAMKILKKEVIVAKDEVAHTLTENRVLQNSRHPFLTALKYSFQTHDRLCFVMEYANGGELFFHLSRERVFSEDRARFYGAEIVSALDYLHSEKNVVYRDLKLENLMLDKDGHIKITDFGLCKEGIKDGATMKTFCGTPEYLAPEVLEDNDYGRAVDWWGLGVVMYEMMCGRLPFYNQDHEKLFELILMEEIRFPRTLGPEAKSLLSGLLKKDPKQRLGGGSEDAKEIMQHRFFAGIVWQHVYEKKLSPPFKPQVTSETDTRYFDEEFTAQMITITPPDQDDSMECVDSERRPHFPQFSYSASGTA

B1: GST-PDK1 (protein)
chain: MARTTSQLYDAVPIQSSVVLCSCPSPSMVRTQTESSTPPGIPGGSRQGPAMDGTAAEPRPGAGSLQHAQPPPQPRKKRPEDFKFGKILGEGSFSTVVLARELATSREYAIKILEKRHIIKENKVPYVTRERDVMSRLDHPFFVKLYFTFQDDEKLYFGLSYAKNGELLKYIRKIGSFDETCTRFYTAEIVSALEYLHGKGIIHRDLKPENILLNEDMHIQITDFGTAKVLSPESKQARANSFVGTAQYVSPELLTEKSACKSSDLWALGCIIYQLVAGLPPFRAGNEYLIFQKIIKLEYDFPEKFFPKARDLVEKLLVLDATKRLGCEEMEGYGPLKAHPFFESVTWENLHQQTPPKLTAYLPAMSEDDEDCYGNYDNLLSQFGCMQVSSSSSSHSLSASDTGLPQRSGSNIEQYIHDLDSNSFELDLQFSEDEKRLLLEKQAGGNPWHQFVENNLILKMGPVDKRKGLFARRRQLLLTEGPHLYYVDPVNKVLKGEIPWSQELRPEAKNFKTFFVHTPNRTYYLMDPSGNAHKWCRKIQEVWRQRYQSHPDAAVQ
In the case of B1, the “reduction of phosphorylation by PDK1” value [1] is reported as “phosphorylation by PDK1 was reduced by 80-90%”, the “maximal stoichiometry of phosphorylation by PDK1” value [2] is reported as “compared to 0.5 mol/mol for PKBα” and the “reduction of phosphorylation by PDK1” value [3] is reported as “reduced phosphorylation by 80-90%”. The “activation and phosphorylation by PDK1, against wild type SGK2α” value [4] was “SGK2[Ser356Asp] was activated (FIG. 17B) and phosphorylated (FIG. 17E) by PDK1 much more effectively than wild type SGK2α”, the “phosphate incorporated, 30 min with 1.5 µg/ml PDK1 and MgATP” value [4] was “incorporation of 1.2 and 1.3 mol phosphate per mol protein, respectively” and the “extent of phosphorylation by PDK1” value [5] was “The mutation of Ser422 to Ala did not affect the extent of phosphorylation of SGK by PDK1”. The “reduction of the extent of activation by PDK1” value [5] was “reduced the extent of activation by 60%”, the “stoichiometry of phosphorylation at 1.5 µg/ml PDK1, 30 min” value (from here on “stoichiometry … 30 min”) [6] was 0.2 mol/mol for SGK2 and the “increase of SGK activity (Crosstide assay) after phosphorylation by PDK1” value [7] was “phosphor-ylation was accompanied by a 10-fold increase in the basal activity”. For the same protein, the “maximal stoichiometry of phosphorylation by PDK1” value [7] was “the maximal stoichiometry of phosphorylation that could be attained was 0.05 mol/mol”, the “stoichiometry … 30 min” value [7] was “close to 1 mol/mol for SGK1 and SGK3” and the “rate of phosphorylation and activation by PDK1, against wild type” value [8] was “stimulated the rate of phosphorylation (FIG. 5C) and activation (FIG. 5D) by PDK1 at least six-fold”. The “stoichiometry of phosphorylation by PDK1” value [9] was “phosphorylated by PDK1 to a stoichiometry of 0.6 mol/mol protein”, the “phosphorylation by PDK1” value [10] was “This mutant was phosphorylated at the same rate, and to the same extent, as wild type SGK” and the “reduction of phosphorylation by PDK1” value [11] was “reduced phosphorylation by 80-90%”. For the same protein, the “phosphate incorporated, 30 min with 1.5 µg/ml PDK1 and MgATP” value [12] was “incorporation of 1.2 and 1.3 mol phosphate per mol protein, respectively” and the “stoichiometry … 30 min” value [12] was “close to 1 mol/mol for SGK1 and SGK3”.
